# In patent US20210403593A1 (TIZONA THERAPEUTICS, published 2021):
# Numbering of substitutions follows the chain as printed.
# B1: 27589 (antibody, human IgG4 S228P, kappa, V domains shown)
# VH: QVQLVQSGAEVKKPGSSVKVSCKASGGTFSSYAISWVRQAPGQGLEWMGGIIPIFGTANYAQKFQGRVTITADESTSTAYMELSSLRSEDTAVYYCARDSGYHRHYSDYWGQGTLVTVSS
# VL: DIQMTQSPSTLSASVGDRVTITCRASQSISSWLAWYQQKPGKAPKLLIYKASSLESGVPSRFSGSGSGTEFTLTISSLQPDDFATYYCQQYGLFPITFGGGTKVEIKR
# B2: 27577 (antibody, human IgG4 S228P, kappa, V domains shown)
# VH: QVQLVQSGAEVKKPGSSVKVSCKASGGAFSSYAIGWVRQAPGQGLEWMGGIIPTFGTANYAQKFQGRVTITADESTSTAYMELSSLRSEDTAVYYCARDGGGYQHHYFDLWGRGTLVTVSS
# VL: EIVMTQSPATLSVSPGERATLSCRASQSVGSNLAWYQQKPGQAPRLLIYGASTRATGIPARFSGSGSGTEFTLTISSLQSEDFAVYYCQQLTKWPLTFGGGTKVEIKR
# B3: 27535 (antibody, human IgG4 S228P, kappa, V domains shown)
# VH: QVQLVQSGAEVKKPGSSVKVSCKASGGTFSSYAISWVRQAPGQGLEWMGGIIPIFGTANYAQKFQGRVTITADESTSTAYMELSSLRSEDTAVYYCARDTPRWRYHYFDYWGQGTLVTVSS
# VL: EIVLTQSPATLSLSPGERATLSCRASQSVSSYLAWYQQKPGQAPRLLIYDASKRATGIPARFSGSGSGTDFTLTISSLEPEDFAVYYCQQVLNYPLTFGGGTKVEIKR
# B4: 27568 (antibody, human IgG4 S228P, kappa, V domains shown)
# VH: QVQLVQSGAEVKKPGSSVKVPCKASGGTFSSYAISWVRQAPEQGLEWMGSIIPIFGTANYAQKFQGRVTITADESTSTAYMELSSLRSEDTAVYYCAGESGGYRDHKLDVWGQGTVVTVSS
# VL: B3 VL with K53N, V91S, L92V, N93F, Y94W, L96I
# B5: 27597 (antibody, human IgG4 S228P, kappa, V domains shown)
# VH: QVQLVQSGAEVKKPGSSVKVSCKASGGTFSSYAISWVRQAPGQGLEWMGSIIPIFGTANYAQKFQGRVTITADESTSTAYMELSSLRSEDTAVYYCAREGRGYDSSRYYKFWFDPWGQGTLVTVSS
# VL: B3 VL with K53N, V91F, L92V, N93L, Y94W, L96R
# B6: 27596 (antibody, human IgG4 S228P, kappa, V domains shown)
# VH: B3 VH with T100P, P101L, R102G, W103I, Y105K, Y107W, Y110P
# VL: B3 VL with L4M, K53N, V91H, L92T, N93V, Y94W, L96I
# B7: 27587 (antibody, human IgG4 S228P, kappa, V domains shown)
# VH: B4 VH with P21S, E42G, G98R, V116M
# VL: B3 VL with V91D, L92V, N93L, Y94W
# B8: 27579 (antibody, V domains shown)
# VH: QVQLVQSGAEVKEPGASVKVSCKAPGYTFTSYYMHWVRQAPGQGLEWMGVINPSGGSTSYAQKFQGRVTMTRDTSTSTVYMELSSLRSEDTAVYYCARGKREGGTEYLRHWGQGTLVTVSS
# VL: EIVLTQSPGTLSLSPGERATLSCRASQSVSSSYLAWYQQKPGQAPRLLIYGASSRATGIPDRFSGSGSGTDFTLTISRLEPEDFAVYYCQQYHSYITFGGGTKVEIK
# B9: 31431 (antibody, V domains shown)
# VH: B8 VH with E13K, P25S, Y33Q, V50R, S59W
# VL: B8 VL with S30A, S54N, A56H, S94G, Y95G
# B10: 31421 (antibody, V domains shown)
# VH: B8 VH with E13K, P25S, T30F, H35Y, S54L, S57G
# VL: B8 VL with R24K, Q27E, G51Y, S94R, Y95R
# B11: 29872 (antibody, V domains shown)
# VH: B8 VH with E13K, P25S, T30K, Y33E, V50R, G55V, S59W
# VL: B8 VL
# notes: also called anti-CD39 antibody 29872
# B12: 31429 (antibody, V domains shown)
# VH: B8 VH with E13K, P25S, T30V, Y33F, V50S, S54R
# VL: B8 VL with S28Y, G51Y, S54N, Y95G
# B13: 28347 (antibody, V domains shown)
# VH: QVQLVQSGAEVKKPGSSVKVSCKASGGTFSSLAISWVRQAPGQGLEWMGGIIPIFGTANYAQKFQGRVTITADESTNTAYMELSSLRSEDTAVYYCARGGAKYASTYGMDVWGQGTTVTVSS
# VL: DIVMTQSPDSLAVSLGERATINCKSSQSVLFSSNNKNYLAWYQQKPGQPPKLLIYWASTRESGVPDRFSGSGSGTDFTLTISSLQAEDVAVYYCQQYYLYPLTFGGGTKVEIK
# B14: 27590 (antibody, V domains shown)
# VH: QVQLVQSGAEVKKPGSSVKVSCKASGGTFSNYAISWVRQAPGQGLEWMGGIIPIFGTANYAQKFQGRVTITADESTSTAYMELSSLRSEDTAVYYCARGPTVTATTSIGTHNWFDPWGQGTLVTVSS
# VL: EIVLTQSPATLSLSPGERATLSCRASQSVSSYLAWYQQKPGQAPRLLIYDASNRATGIPARFSGSGSGTDFTLTISSLEPEDFAVYYCQQRNFYPPTFGGGTKVEIK
# B15: 27536 (antibody, V domains shown)
# VH: QVQLVQSGAEVKKPGSSVKVSCKASGGTFSNYAISWVRQAPGQGLEWMGGIIPIFGTANYAQKFQGRVTITADESTSTAYMELSSLRSEDTAVYYCARDTLYSSGAYYGYNVWGQGTMVTVSS
# VL: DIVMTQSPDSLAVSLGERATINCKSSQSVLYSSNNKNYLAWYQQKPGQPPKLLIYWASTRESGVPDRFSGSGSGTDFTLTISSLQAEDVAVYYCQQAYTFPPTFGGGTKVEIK
# B16: 27550 (antibody, human IgG4 S228P, kappa, V domains shown)
# VH: EVQLVESGGGLVKPGGSLRLSCAASGFTFSSYSMNWVRQAPGKGLEWVSSISSSSSYIYYADSVKGRFTISRDNAKNSLYLQMNSLRAEDTAVYYCARERRGSLALGMDVWGQGTLVTVSS
# VL: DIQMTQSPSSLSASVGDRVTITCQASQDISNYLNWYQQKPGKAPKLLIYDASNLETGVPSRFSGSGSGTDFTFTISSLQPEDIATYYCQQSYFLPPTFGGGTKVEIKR
# B17: 27571 (antibody, V domains shown)
# VH: B4 VH with V20A, P21S, E42G, Q65R, A79T, G98R, K107R, V116M
# VL: EIVMTQSPATLSVSPGERATLSCRASQSVGSNLAWYQQKPGQAPRLLIYGASTRATGIPARFSGSGSGTEFTLTISSLQSEDFAVYYCQQYLIWPLTFGGGTKVEIK
# B18: 31393 (antibody, human IgG4 S228P, kappa, V domains shown)
# VH: B4 VH with P21S, S30E, A33G, E42G, I54E, T57I, A79T, G98R, K107R, V116M
# VL: B2 VL with L91Y, T92L, K93L
# B19: 27588 (antibody, V domains shown)
# VH: QVQLVQSGAEVKKPGSSVKVSCKASGGTFSNYAISWVRQAPGQGLEWMGGIIPIFGTANYAQKFQGRVTITADESTSTAYMELSSLRSEDTAVYYCARAKRGYDSYGGVYFDYWGQGTLVTVSS
# VL: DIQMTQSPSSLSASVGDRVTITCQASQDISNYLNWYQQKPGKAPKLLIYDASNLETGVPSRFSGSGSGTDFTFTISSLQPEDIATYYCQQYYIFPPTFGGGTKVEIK
# B20: 27549 (antibody, human IgG4 S228P, kappa, V domains shown)
# VH: QVQLVESGGGVVQPGRSLRLSCAASGFTFSSYGMNWVRQAPGKGLEWVAVIWYDGSNKYYADSVKGRFTISRDNSKNTLYLQMNSLRAEDTAVYYCARDLGGYSYGEPYYYYYGMDVWGQGTTVTVSS
# VL: EIVLTQSPGTLSLSPGERATLSCRASQSVSSDYLAWYQQKPGQAPRLLIYGASSRATGIPDRFSGSGSGTDFTLTISRLEPEDFAVYYCQQAHSSPYTFGGGTKVEIKR
# How the values were obtained:
# [1] = target: T1, cynomolgus macaque (Macaca fascicularis) CD39 (Macaca fascicularis, UniProt P49961 7-510 (human entry)); experiment: flow cytometry, 100 nM IgG, MFI on CHO-cCD39 / MFI on parental CHO;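 also: antibodies bound to the cells for 30 min in PBS, then bound IgG was revealed with a fluorescent goat anti-human IgG secondary antibody, 20 min on ice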
# T1 construct: On engineered CHO cells and on primary cyno B cells and monocytes; also called cyno CD39; cCD39
# T1 chain: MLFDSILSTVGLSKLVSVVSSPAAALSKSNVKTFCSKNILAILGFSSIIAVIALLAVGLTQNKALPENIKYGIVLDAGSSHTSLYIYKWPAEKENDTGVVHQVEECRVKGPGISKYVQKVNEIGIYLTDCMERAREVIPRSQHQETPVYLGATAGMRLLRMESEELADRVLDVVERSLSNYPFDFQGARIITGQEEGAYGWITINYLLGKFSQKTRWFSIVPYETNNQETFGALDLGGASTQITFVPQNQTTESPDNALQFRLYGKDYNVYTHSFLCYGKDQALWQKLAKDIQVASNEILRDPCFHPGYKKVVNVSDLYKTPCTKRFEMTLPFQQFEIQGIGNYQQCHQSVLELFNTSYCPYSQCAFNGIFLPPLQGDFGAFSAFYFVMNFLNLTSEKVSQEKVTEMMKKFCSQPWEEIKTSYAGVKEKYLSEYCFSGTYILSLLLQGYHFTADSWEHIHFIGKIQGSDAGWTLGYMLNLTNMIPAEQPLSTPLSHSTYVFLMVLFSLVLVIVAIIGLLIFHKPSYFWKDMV
# human CD39 (cellular) = target: T2, human CD39 (cellular) (human, UniProt P49961 1-510); experiment: flow cytometry, 100 nM IgG, MFI on CHO-hCD39 / MFI on parental CHO;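 also: cells exposed to IgG for 30 min on ice in PBS, bound antibody then revealed with a fluorescent goat anti-human IgG secondary (20 min, on ice)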
# T2 construct: Same protein on engineered CHO cells and on cells that express it endogenously; also called hCD39; cellular CD39
# T2 sequence: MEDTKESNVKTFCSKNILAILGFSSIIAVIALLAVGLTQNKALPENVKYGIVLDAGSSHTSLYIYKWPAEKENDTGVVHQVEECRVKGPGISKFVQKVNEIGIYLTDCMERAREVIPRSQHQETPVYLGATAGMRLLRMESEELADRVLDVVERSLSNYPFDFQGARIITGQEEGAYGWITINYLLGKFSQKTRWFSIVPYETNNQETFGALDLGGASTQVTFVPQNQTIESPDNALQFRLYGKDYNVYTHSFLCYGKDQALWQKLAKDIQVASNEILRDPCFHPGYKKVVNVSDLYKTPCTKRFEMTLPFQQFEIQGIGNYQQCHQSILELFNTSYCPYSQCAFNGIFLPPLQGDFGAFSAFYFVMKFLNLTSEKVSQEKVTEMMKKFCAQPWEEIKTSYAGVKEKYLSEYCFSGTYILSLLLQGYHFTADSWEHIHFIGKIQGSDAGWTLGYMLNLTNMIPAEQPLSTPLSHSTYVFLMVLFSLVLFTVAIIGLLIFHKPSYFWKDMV
Binder,Cell Binding (FOB) [1],Cell Binding (FOB) (human CD39 (cellular))
B1,531 fold over background,311 fold over background
B2,339 fold over background,390 fold over background
B3,738 fold over background,301 fold over background
B4,260 fold over background,267 fold over background
B5,908 fold over background,799 fold over background
B6,257 fold over background,252 fold over background
B7,1400 fold over background,1450 fold over background
B8,2670 fold over background,1950 fold over background
B9,3530 fold over background,1240 fold over background
B10,3050 fold over background,1080 fold over background
B11,4190 fold over background,1450 fold over background
B12,3800 fold over background,1290 fold over background
B13,1340 fold over background,1020 fold over background
B14,44 fold over background,33 fold over background
B15,113 fold over background,89 fold over background
B16,2870 fold over background,2030 fold over background
B17,1610 fold over background,1400 fold over background
B18,2960 fold over background,1060 fold over background
B19,14 fold over background,10 fold over background
B20,566 fold over background,822 fold over background
